Measured values taken from US5723307A, “Fluorogenic substrates for assay of angiotensin converting enzyme” (Development Center for Biotechnology, priority 1995, dated 1998).
Starred links: 1 amine or outer side, 2 acyl side, 3 side chain; linkers in the order of their positions; H or OH if unused. Non-standard residues stand in square brackets, D forms with d. Residues, ends and D or L forms follow the SMILES beside them. *: point of attachment. Phe(4-NO2) = N[C@@H](Cc1ccc([N+](=O)[O-])cc1)C(=O)O; EDANS = O=S(=O)(O)c1cccc2c(NCCN*)cccc12; Suc = O=C(CCC(=O)[*:2])[*:1]; 2Abz = Nc1ccccc1C(=O)O

Legend:
[1] = solubility in aqueous buffer; assay type: physicochemical
ACE = conditions: from literature, cited from earlier work; for Km: Ref. [16]-[20]
[2] = substrate: CC(C)C[C@H](NC(=O)[C@H](Cc1c[nH]c2ccccc12)NC(=O)[C@H](Cc1ccccc1)NC(=O)CCC(=O)NCCNc1cccc2c(S(=O)(=O)O)cccc12)C(=O)O; experiment: continuous spectrofluorometric assay of hydrolysis of fluorogenic substrates by ACE (kinetic parameters); assay type: biochemical, rabbit; conditions: other: 0.05M Hepes buffer pH 8.2, 0.2M NaCl, 1M Na2SO4, Lineweaver-Burk, ex 286 nm, em 360 nm, 37.0 °C
Method: (§1) Fluorescence data were recorded on a HITACHI Model F2000 fluorescence spectrophotometer (Tokyo, Japan) set at wavelengths of 286 nm (excitation)and 360 nm (emission). The rates of enzymatic hydrolysis of the fluorogenic compounds ES-FWF, ES-FWG, ES-FWH, ES-FWK, ES-FWL and ES-FHW were monitored fluorospectrophotometrically as follows: A solution of ACE was prepared at 1.3×10^-2 units/ml (concentration of enzyme was estimated by using the Bio-Rad protein assay kit with bovine serum albumin as a standard). […] Activity was assayed with hippuryl-L-histidyl-L-leucine as a substrate. One unit of enzyme activity is the amount required to catalyze the formation of 1.0 μmol of hippuric acid per minute (in 50 mM Hepes, pH 8.3, and 0.3M NaCl at 37° C.). For fluorescence measurement, 20 μl of enzyme solution was added to 0.5 ml substrate solution (2×10^-6 -6.5×10^-5 M) in 0.05M Hepes buffer, pH 8.2, containing 0.2M NaCl and 1M Na2 SO4, placed in an optical cell. […] The increase in fluorescence (emission at 360 nm, excitation at 286 nm) with time, in the presence of the enzyme, was recorded continuously. Since the product (and perhaps the substrate as well) is subject to photodecomposition, the slit width of the excitation monochromator must not be too large. Alternatively, the reaction can be monitored automatically by pulse illumination with a time interval of 150, sec, as shown in FIG. 1.
(§2) Dependence of the rate of hydrolysis on substrate concentration was established by initial rate measurements (within the first 10% of hydrolysis). The slope of the line was translated into molar concentrations of the released dipeptides using a calibration curve constructed by fluorescence measurements of solutions containing authentic dipeptide under identical conditions. Km values were calculated by the method of Lineweaver-Burk plots. Five points with approximately equidistance on the 1/[S] abscissa were obtained from the average of two independent measurements. Kinetic parameters for other substrates were also obtained by similar procedures.
(§3) Kinetic parameters of ES-FWF, ES-FWG, ES-FWH, ES-FWK, ES-FWL and ES-FHW for ACE were obtained by continuous spectrofluorometric assay, and the results are listed in Table I. In order to compare the characteristics of the ES-peptides with those of previously reported fluorogenic substrates, the kinetic parameters from literatures were collected for comparison.

[3] = substrate: O=C(CCC(=O)N[C@@H](Cc1ccccc1)C(=O)N[C@@H](Cc1c[nH]cn1)C(=O)N[C@@H](Cc1c[nH]c2ccccc12)C(=O)O)NCCNc1cccc2c(S(=O)(=O)O)cccc12; experiment: as above; assay type: biochemical, rabbit; conditions: other: 0.05M Hepes buffer pH 8.2, 0.2M NaCl, 1M Na2SO4, Lineweaver-Burk, ex 286 nm, em 360 nm, 37.0 °C
Method: as §1, §2, §3

[4] = substrate: O=C(CCC(=O)N[C@@H](Cc1ccccc1)C(=O)N[C@@H](Cc1c[nH]c2ccccc12)C(=O)N[C@@H](Cc1c[nH]cn1)C(=O)O)NCCNc1cccc2c(S(=O)(=O)O)cccc12; experiment: as above; assay type: biochemical, rabbit; conditions: other: 0.05M Hepes buffer pH 8.2, 0.2M NaCl, 1M Na2SO4, Lineweaver-Burk, ex 286 nm, em 360 nm, 37.0 °C
Method: as §1, §2, §3

[5] = substrate: O=C(CCC(=O)N[C@@H](Cc1ccccc1)C(=O)N[C@@H](Cc1c[nH]c2ccccc12)C(=O)N[C@@H](Cc1ccccc1)C(=O)O)NCCNc1cccc2c(S(=O)(=O)O)cccc12; experiment: as above; assay type: biochemical, rabbit; conditions: other: 0.05M Hepes buffer pH 8.2, 0.2M NaCl, 1M Na2SO4, Lineweaver-Burk, ex 286 nm, em 360 nm, 37.0 °C
Method: as §1, §2, §3

[6] = substrate: NCCCC[C@H](NC(=O)[C@H](Cc1c[nH]c2ccccc12)NC(=O)[C@H](Cc1ccccc1)NC(=O)CCC(=O)NCCNc1cccc2c(S(=O)(=O)O)cccc12)C(=O)O; experiment: as above; assay type: biochemical, rabbit; conditions: other: 0.05M Hepes buffer pH 8.2, 0.2M NaCl, 1M Na2SO4, Lineweaver-Burk, ex 286 nm, em 360 nm, 37.0 °C
Method: as §1, §2, §3

[7] = substrate: O=C(O)CNC(=O)[C@H](Cc1c[nH]c2ccccc12)NC(=O)[C@H](Cc1ccccc1)NC(=O)CCC(=O)NCCNc1cccc2c(S(=O)(=O)O)cccc12; experiment: as above; assay type: biochemical, rabbit; conditions: other: 0.05M Hepes buffer pH 8.2, 0.2M NaCl, 1M Na2SO4, Lineweaver-Burk, ex 286 nm, em 360 nm, 37.0 °C
Method: as §1, §2, §3

Work on `NCCCC[C@H](NC(=O)[C@H](Cc1c[nH]c2ccccc12)NC(=O)[C@H](Cc1ccccc1)NC(=O)CCC(=O)NCCNc1cccc2c(S(=O)(=O)O)cccc12)C(=O)O` [ES-FWK] ({EDANS-Suc}-Phe-Trp-Lys-OH) yielded a solubility [1] of 7000 to 40000 µg/mL.

With `CC(C)C[C@H](NC(=O)[C@H](Cc1c[nH]c2ccccc12)NC(=O)[C@H](Cc1ccccc1)NC(=O)CCC(=O)NCCNc1cccc2c(S(=O)(=O)O)cccc12)C(=O)O` [ES-FWL] ({EDANS-Suc}-Phe-Trp-Leu-OH) the solubility [1] was 7000 to 40000 µg/mL.

In the case of `O=C(O)CNC(=O)[C@H](Cc1c[nH]c2ccccc12)NC(=O)CNC(=O)OCc1ccc([N+](=O)[O-])cc1` [Z(NO2)-GWG, p-nitrobenzyloxycarbonylglycyl-L-tryptophyl-glycine], the Km (ACE) is given as 900 µM.

For `O=C(O)CNC(=O)[C@H](Cc1c[nH]c2ccccc12)NC(=O)[C@H](Cc1ccccc1)NC(=O)CCC(=O)NCCNc1cccc2c(S(=O)(=O)O)cccc12` [ES-FWG] ({EDANS-Suc}-Phe-Trp-Gly-OH), the solubility [1] was 7000 to 40000 µg/mL.

For `O=C(CCC(=O)N[C@@H](Cc1ccccc1)C(=O)N[C@@H](Cc1c[nH]c2ccccc12)C(=O)N[C@@H](Cc1c[nH]cn1)C(=O)O)NCCNc1cccc2c(S(=O)(=O)O)cccc12` [ES-FWH] ({EDANS-Suc}-Phe-Trp-His-OH), the solubility [1] was 7000 to 40000 µg/mL.

In the case of `O=C(CCC(=O)N[C@@H](Cc1ccccc1)C(=O)N[C@@H](Cc1c[nH]c2ccccc12)C(=O)N[C@@H](Cc1ccccc1)C(=O)O)NCCNc1cccc2c(S(=O)(=O)O)cccc12` [ES-FWF] ({EDANS-Suc}-Phe-Trp-Phe-OH), the solubility [1] is reported as 7000 to 40000 µg/mL.

In the case of `Nc1ccccc1C(=O)NCC(=O)N[C@@H](Cc1ccc([N+](=O)[O-])cc1)C(=O)N1CCC[C@H]1C(=O)O` [Abz-GF(NO2)P, o-aminobenzoyl-glycyl-p-nitro-L-phenylalanyl-L-proline] (H-[2Abz]G[Phe(4-NO2)]P-OH), the Km (ACE) is listed as 190 µM, the kcat (ACE; Ref. [17]-[20]) is listed as 1.5 s⁻¹ and the kcat/Km (ACE; Ref. [17]-[20]) is listed as 7.7 × 10^3 M^-1 S^-1.

With `O=C(CCC(=O)N[C@@H](Cc1ccccc1)C(=O)N[C@@H](Cc1c[nH]cn1)C(=O)N[C@@H](Cc1c[nH]c2ccccc12)C(=O)O)NCCNc1cccc2c(S(=O)(=O)O)cccc12` [ES-FHW] ({EDANS-Suc}-Phe-His-Trp-OH) the solubility [1] was 7000 to 40000 µg/mL.

B1: ACE (from rabbit lung, Sigma Chemical Co.) (Oryctolagus cuniculus) (protein)
chain: TLDPGLLPGDFAADEAGARLFASSYNSSAEQVLFRSTAASWAHDTNITAENARRQEEEALLSQEFAEAWGKKAKELYDPVWQNFTDPELRRIIGAVRTLGPANLPLAKRQQYNSLLSNMSQIYSTGKVCFPNKTASCWSLDPDLNNILASSRSYAMLLFAWEGWHNAVGIPLKPLYQEFTALSNEAYRQDGFSDTGAYWRSWYDSPTFEEDLERIYHQLEPLYLNLHAYVRRVLHRRYGDRYINLRGPIPAHLLGNMWAQSWESIYDMVVPFPDKPNLDVTSTMVQKGWNATHMFRVAEEFFTSLGLLPMPPEFWAESMLEKPEDGREVVCHASAWDFYNRKDFRIKQCTQVTMDQLSTVHHEMGHVQYYLQYKDQPVSLRRANPGFHEAIGDVLALSVSTPAHLHKIGLLDHVTNDTESDINYLLKMALEKIAFLPFGYLVDQWRWGVFSGRTPSSRYNFDWWYLRTKYQGICPPVVRNETHFDAGAKFHIPSVTPYIRYFVSFVLQFQFHQALCMEAGHQGPLHQCDIYQSTRAGAKLRAVLQAGCSRPWQEVLKDMVASDALDAQPLLDYFQPVTQWLQEQNERNGEVLGWPEYQWRPPLPNNYPEGIDLVTDEAEASRFVEEYDRSFQAVWNEYAEANWNYNTNITTEASKILLQKNMQIANHTLTYGNWARRFDVSNFQNATSKRIIKKVQDLQRAVLPVKELEEYNQILLDMETIYSVANVCRVDGSCLQLEPDLTNLMATSRKYDELLWVWTSWRDKVGRAILPYFPKYVEFTNKAARLNGYVDAGDSWRSMYETPTLEQDLERLFQELQPLYLNLHAYVGRALHRHYGAQHINLEGPIPAHLLGNMWAQTWSNIYDLVAPFPSASTMDATEAMIKQGWTPRRMFEEADKFFISLGLLPVPPEFWNKSMLEKPTDGREVVCHASAWDFYNGKDFRIKQCTTVNMEDLVVVHHEMGHIQYFMQYKDLPVALREGANPGFHEAIGDVLALSVSTPKHLHSINLLSSEGGGYEHDINFLMKMALDKIAFIPFSYLVDEWRWRVFDGSITKENYNQEWWSLRLKYQGLCPPAPRSQGDFDPGAKFHIPSSVPYIRYFVSFIIQFQFHEALCKAAGHTGPLHTCDIYQSKEAGKRLADAMKLGYSKPWPEAMKVITGQPNMSASAMMNYFKPLMDWLLTENGRHGEKLGWPQYTWTPNSARSEGSLPDSGRVNFLGMNLDAQQARVGQWVLLFLGVALLLASLGLTQRLFSIRYQSLRQPHHGPQFGSEVELRHS
notes: ACE (from rabbit lung, Sigma Chemical Co.); purchased Sigma Chemical Co; host or cells: rabbit lung (tissue)
With B1 the Km [2] was 2.7 µM, the kcat [2] was 0.9 s⁻¹ and the kcat/Km [2] was 3.2 × 10^5 M^-1 S^-1. For the same molecule, the Km [3] was 15 µM, the kcat [3] was 2.0 s⁻¹ and the kcat/Km [3] was 1.3 × 10^5 M^-1 S^-1. For the same molecule, the Km [4] was 4.9 µM, the kcat [4] was 0.8 s⁻¹ and the kcat/Km [4] was 1.7 × 10^5 M^-1 S^-1. The Km [5] was 4.5 µM, the kcat [5] was 2.1 s⁻¹ and the kcat/Km [5] was 4.6 × 10^5 M^-1 S^-1. For the same molecule, the Km [6] was 24 µM, the kcat [6] was 3.8 s⁻¹ and the kcat/Km [6] was 1.6 × 10^5 M^-1 S^-1. The Km [7] was 23 µM, the kcat [7] was 2.0 s⁻¹ and the kcat/Km [7] was 8.9 × 10^4 M^-1 S^-1.
